Reference: US7361485

Columns and labels:
[1] = target: T1, modified pro-caspase-3 with an aggrecanase recognition sequence, P42574
T1 chain: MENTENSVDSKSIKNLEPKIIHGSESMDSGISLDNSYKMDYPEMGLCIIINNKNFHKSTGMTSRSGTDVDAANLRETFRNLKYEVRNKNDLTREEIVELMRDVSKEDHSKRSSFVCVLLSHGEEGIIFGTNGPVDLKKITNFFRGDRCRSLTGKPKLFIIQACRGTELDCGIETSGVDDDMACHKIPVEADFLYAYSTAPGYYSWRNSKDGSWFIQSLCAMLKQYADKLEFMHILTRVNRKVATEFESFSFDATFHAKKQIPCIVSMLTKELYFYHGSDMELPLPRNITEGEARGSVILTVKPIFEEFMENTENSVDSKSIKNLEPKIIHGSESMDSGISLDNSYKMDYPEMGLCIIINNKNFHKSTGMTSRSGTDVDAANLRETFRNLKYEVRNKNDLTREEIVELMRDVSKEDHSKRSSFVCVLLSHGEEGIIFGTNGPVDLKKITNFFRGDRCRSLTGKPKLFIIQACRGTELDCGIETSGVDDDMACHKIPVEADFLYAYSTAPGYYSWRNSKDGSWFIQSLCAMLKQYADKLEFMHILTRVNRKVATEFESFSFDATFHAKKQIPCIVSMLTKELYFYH

[2] = target: T2, modified pro-caspase-7 with an aggrecanase activation sequence, P55210
T2 chain: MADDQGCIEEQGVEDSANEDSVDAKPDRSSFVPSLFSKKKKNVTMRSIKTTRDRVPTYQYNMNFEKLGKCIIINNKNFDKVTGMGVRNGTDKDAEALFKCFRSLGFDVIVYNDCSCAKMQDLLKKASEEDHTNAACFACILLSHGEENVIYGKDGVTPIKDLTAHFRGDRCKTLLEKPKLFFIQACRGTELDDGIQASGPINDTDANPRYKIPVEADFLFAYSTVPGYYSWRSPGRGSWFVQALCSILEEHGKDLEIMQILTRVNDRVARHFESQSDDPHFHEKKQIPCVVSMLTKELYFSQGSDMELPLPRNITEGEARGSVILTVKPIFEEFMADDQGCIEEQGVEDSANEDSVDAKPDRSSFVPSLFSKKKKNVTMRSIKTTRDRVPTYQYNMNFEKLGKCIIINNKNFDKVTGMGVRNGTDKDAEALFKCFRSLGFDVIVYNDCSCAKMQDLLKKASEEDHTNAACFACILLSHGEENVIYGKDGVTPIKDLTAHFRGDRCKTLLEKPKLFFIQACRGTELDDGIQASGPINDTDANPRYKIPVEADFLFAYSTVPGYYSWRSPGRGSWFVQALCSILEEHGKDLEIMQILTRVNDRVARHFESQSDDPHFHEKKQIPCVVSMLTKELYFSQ

B1: aggrecanase (ADAMTS-4) (protein)
chain: FASLSRFVETLVVADDKMAAFHGAGLKRYLLTVMAAAAKAFKHPSIRNPVSLVVTRLVILGSGEEGPQVGPSAAQTLRSFCAWQRGLNTPEDSDPDHFDTAILFTRQDLCGVSTCDTLGMADVGTVCDPARSCAIVEDDGLQSAFTAAHELGHVFNMLHDNSKPCISLNGPLSTSRHVMAPVMAHVDPEEPWSPCSARFITDFLDNGYGHCLLDKPEAPLHLPVTFPGKDYDADRQCQLTFGPDSRHCPQLPPPCAALWCSGHLNGHAMCQTKHSPWADGTPCGPAQACMGGRCLHMDQLQDFNIPQAGGWGPWGPWGDCSRTCGGGVQFSSRDCTRPVPRNGGKYCEGRRTRFRSCNTEDCPTGSALTFREEQCAAYNHRTDLFKSFPGPMDWVPRYTGVAPQDQCKLTCQAQALGYYYVLEPRVVDGTPCSPDSSSVCVQGRCIHAGCDRIIGSKKKFDKCMVCGGDGSGCSKQSGSFRKFRYGYNNVVTIPAGATHILVRQQGNPGHRSIYLALKLPDGSYALNGEYTLMPSPTDVVLPGAVSLRYSGATAASETLSGHGPLAQPLTLQVLVAGNPQDTRLRYSFFVPRPTPSTPRPTPQDWLHRRAQILEILRRRPWAGRK
- caspase activity (DEVD-pNA, A405) [1]: Upon incubation of the various pro-caspase variants with their respective target enzymes a clear increase in caspase activity was observed.
- caspase activity (DEVD-pNA, A405) [2]: Upon incubation of the various pro-caspase variants with their respective target enzymes a clear increase in caspase activity was observed.
